Reference: patent US20200376119A1 (Hoffmann-La Roche, published 2020)

Biological target: T1, carcinoembryonic antigen (CEA) on MKN-45 tumor cells (human, UniProt P06731 35-702)
T1 sequence (looked up): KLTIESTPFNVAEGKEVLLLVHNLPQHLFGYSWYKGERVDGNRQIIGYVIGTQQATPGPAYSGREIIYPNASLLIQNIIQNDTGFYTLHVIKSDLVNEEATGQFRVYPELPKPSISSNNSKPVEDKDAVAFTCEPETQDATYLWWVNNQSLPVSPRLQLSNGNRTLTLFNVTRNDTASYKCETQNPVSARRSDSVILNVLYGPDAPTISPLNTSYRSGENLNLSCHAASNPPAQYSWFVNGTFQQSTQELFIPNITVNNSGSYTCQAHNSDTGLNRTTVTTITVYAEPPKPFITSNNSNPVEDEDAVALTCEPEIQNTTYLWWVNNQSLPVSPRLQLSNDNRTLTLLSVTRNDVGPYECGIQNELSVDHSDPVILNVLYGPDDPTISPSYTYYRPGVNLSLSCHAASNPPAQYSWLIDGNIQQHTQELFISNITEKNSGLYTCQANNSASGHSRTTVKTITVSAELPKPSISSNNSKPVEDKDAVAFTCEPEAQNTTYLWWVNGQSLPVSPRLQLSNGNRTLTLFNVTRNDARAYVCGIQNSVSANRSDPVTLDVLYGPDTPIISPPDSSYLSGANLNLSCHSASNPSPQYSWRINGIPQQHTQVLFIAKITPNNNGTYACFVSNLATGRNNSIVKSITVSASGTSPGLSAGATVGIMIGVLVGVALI
Assay: cell-based or functional assay

B1: CEA TCB (bispecific antibody)
chain 1: QAVVTQEPSLTVSPGGTVTLTCGSSTGAVTTSNYANWVQEKPGQAFRGLIGGTNKRAPGTPARFSGSLLGGKAALTLSGAQPEDEAEYYCALWYSNLWVFGGGTKLTVLSSASTKGPSVFPLAPSSKSTSGGTAALGCLVKDYFPEPVTVSWNSGALTSGVHTFPAVLQSSGLYSLSSVVTVPSSSLGTQTYICNVNHKPSNTKVDKKVEPKSC
chain 2: not shown
chain 3: QVQLVQSGAEVKKPGASVKVSCKASGYTFTEFGMNWVRQAPGQGLEWMGWINTKTGEATYVEEFKGRVTFTTDTSTSTAYMELRSLRSDDTAVYYCARWDFAYYVEAMDYWGQGTTVTVSSASTKGPSVFPLAPSSKSTSGGTAALGCLVKDYFPEPVTVSWNSGALTSGVHTFPAVLQSSGLYSLSSVVTVPSSSLGTQTYICNVNHKPSNTKVDKKVEPKSCDKTHTCPPCPAPEAAGGPSVFLFPPKPKDTLMISRTPEVTCVVVDVSHEDPEVKFNWYVDGVEVHNAKTKPREEQYNSTYRVVSVLTVLHQDWLNGKEYKCKVSNKALGAPIEKTISKAKGQPREPQVCTLPPSRDELTKNQVSLSCAVKGFYPSDIAVEWESNGQPENNYKTTPPVLDSDGSFFLVSKLTVDKSRWQQGNVFSCSVMHEALHNHYTQKSLSLSPGK
chain 4: DIQMTQSPSSLSASVGDRVTITCKASAAVGTYVAWYQQKPGKAPKLLIYSASYRKRGVPSRFSGSGSGTDFTLTISSLQPEDFATYYCHQYYTYPLFTFGQGTKLEIKRTVAAPSVFIFPPSDEQLKSGTASVVCLLNNFYPREAKVQWKVDNALQSGNSQESVTEQDSKDSTYSLSSTLTLSKADYEKHKVYACEVTHQGLSSPVTKSFNRGEC
With B1 the “EC50 of tumor cell killing (LDH release, MKN-45 cells with human PBMCs, E:T 10:1, 24 h)” value was 0.615 nM and the “EC50 of tumor cell killing (LDH release, MKN-45 cells with human PBMCs, E:T 10:1, 48 h)” value was 0.362 nM.
